Results reported in paper PMC9352680, “A comprehensive thermodynamic model for RNA binding by the Saccharomyces cerevisiae Pumilio protein PUF4”.

Target: T1, PUF4 RNA-binding domain (Saccharomyces cerevisiae, UniProt P25339 537-888)
T1 sequence: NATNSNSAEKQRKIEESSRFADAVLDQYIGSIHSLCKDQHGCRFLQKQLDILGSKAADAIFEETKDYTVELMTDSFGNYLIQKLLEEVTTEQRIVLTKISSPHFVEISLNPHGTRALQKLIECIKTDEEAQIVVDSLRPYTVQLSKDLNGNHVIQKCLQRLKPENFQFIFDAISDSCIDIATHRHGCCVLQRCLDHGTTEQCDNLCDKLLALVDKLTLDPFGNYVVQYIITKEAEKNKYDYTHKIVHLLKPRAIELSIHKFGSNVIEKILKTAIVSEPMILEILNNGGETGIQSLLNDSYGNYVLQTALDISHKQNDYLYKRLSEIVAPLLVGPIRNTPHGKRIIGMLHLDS
Assay: Mg; RNA-MaP; 20 mM Na-HEPES pH 7.4, 30 mM KOAc, 0.75 mM MgCl2, 0.1% Tween-20, 5% glycerol, 0.1 mg/mL BSA, 2 mM DTT; 25 C; 0.0125-409.6 nM protein
Conditions: tags: N-His6-TEV cleaved; C-SNAP kept, Cy3B-labelled; label: tethered on chip by stalled RNA polymerase

Binder: UCUCUUUAUUGUAAUAUUAUAUCUCUU (ssRNA) [Id_iii_S1_P5E.8_K5.4_C5.3_[C-2A]_H5.1_A5.2_F5.1_T5.2]
- Kd: 9.11 nM

Binder: UCUCUUUCUUGUAAUAAAAUCUCUCUU (ssRNA) [Id_iii_S1_P5E.9_K5.5_C5.3_H5.1_A5.2_F5.2_T5.2_[A12C]]
- Kd: 411 nM

Binder: UCUCUUUCUUGUAAUAAAAAAUCUCUU (ssRNA) [Id_iii_S1_P5E.9_K5.5_C5.3_H5.1_A5.2_F5.2_T5.2_[T11A]]
- Kd: 412 nM

Binder: UCUCUUUCUUGUAAUAUUAUUUCUCUU (ssRNA) [Id_iii_S1_P5E.8_K5.4_C5.3_H5.1_A5.2_F5.1_T5.2_[A12T]]
- Kd: 7.29 nM

B1: Id_iii_S2_P3E.5_K3.1_C3.3_[T-3A]_H3.1_A3.1_F3.1_T3.2 (ssRNA)
RNA: UUUGAUUAAUAUGAUAUCGUUCUUUCUACUUGUAUAUAUAUUCUUUCUCGAUAUCAUAUUAAUCUUU
- Kd: 1.18 nM

B2: Id_iii_S2_P3E.9_K3.5_C3.3_[T-1G]_H3.1_A3.2_F3.2_T3.2 (ssRNA)
RNA: UUUGAUUAAUAUGAUAUCGUUCUUUCUUCGUGUAAAAAUAUUCUUUCUCGAUAUCAUAUUAAUCUUU
- Kd: 32.2 nM

B3: Id_iii_S2_P3E.6_K3.2_C3.3_H3.2_A3.1_F3.1_T3.2_[T9A] (ssRNA)
RNA: UUUGAUUAAUAUGAUAUCGUUCUUUCUUCUUAUAUAUAAAUUCUUUCUCGAUAUCAUAUUAAUCUUU
- Kd: 321 nM

B4: Id_iii_S2_P3E.9_K3.5_C3.3_[T-1A]_H3.1_A3.2_F3.2_T3.2 (ssRNA)
RNA: UUUGAUUAAUAUGAUAUCGUUCUUUCUUCAUGUAAAAAUAUUCUUUCUCGAUAUCAUAUUAAUCUUU
- Kd: 28.6 nM

B5: Id_iii_S2_P3E.5_K3.1_C3.3_H3.1_A3.1_F3.1_T3.2_[A10G] (ssRNA)
RNA: UUUGAUUAAUAUGAUAUCGUUCUUUCUUCUUGUAUAUAUGUUCUUUCUCGAUAUCAUAUUAAUCUUU
- Kd: 2.21 nM

B6: Id_iii_S2_P3E.5_K3.1_C3.3_[C-2G]_H3.1_A3.1_F3.1_T3.2 (ssRNA)
RNA: UUUGAUUAAUAUGAUAUCGUUCUUUCUUGUUGUAUAUAUAUUCUUUCUCGAUAUCAUAUUAAUCUUU
- Kd: 2.14 nM

B7: Id_iii_S2_P3E.6_K3.2_C3.3_H3.2_A3.1_F3.1_T3.2_[T9C] (ssRNA)
RNA: UUUGAUUAAUAUGAUAUCGUUCUUUCUUCUUAUAUAUACAUUCUUUCUCGAUAUCAUAUUAAUCUUU
- Kd: 168 nM

B8: Id_iii_S2_P3E.6_K3.2_C3.3_[T-3A]_H3.2_A3.1_F3.1_T3.2 (ssRNA)
RNA: UUUGAUUAAUAUGAUAUCGUUCUUUCUACUUAUAUAUAUAUUCUUUCUCGAUAUCAUAUUAAUCUUU
- Kd: 91.2 nM

B9: Id_iii_S2_P3E.9_K3.5_C3.3_[T-1C]_H3.1_A3.2_F3.2_T3.2 (ssRNA)
RNA: UUUGAUUAAUAUGAUAUCGUUCUUUCUUCCUGUAAAAAUAUUCUUUCUCGAUAUCAUAUUAAUCUUU
- Kd: 11.9 nM

B10: Id_iii_S2_P3E.6_K3.2_C3.3_[T-1A]_H3.2_A3.1_F3.1_T3.2 (ssRNA)
RNA: UUUGAUUAAUAUGAUAUCGUUCUUUCUUCAUAUAUAUAUAUUCUUUCUCGAUAUCAUAUUAAUCUUU
- Kd: 122 nM

B11: Id_iii_S2_P3E.9_K3.5_C3.3_H3.1_A3.2_F3.2_T3.2_[A10G] (ssRNA)
RNA: UUUGAUUAAUAUGAUAUCGUUCUUUCUUCUUGUAAAAAUGUUCUUUCUCGAUAUCAUAUUAAUCUUU
- Kd: 661 nM

B12: Id_iii_S2_P3E.7_K3.3_C3.3_[T-3A]_H3.3_A3.1_F3.1_T3.2 (ssRNA)
RNA: UUUGAUUAAUAUGAUAUCGUUCUUUCUACUACACUAUAUAUUCUUUCUCGAUAUCAUAUUAAUCUUU
- Kd: 213 nM

B13: Id_iii_S2_P3E.8_K3.4_C3.3_[T-3C]_H3.1_A3.2_F3.1_T3.2 (ssRNA)
RNA: UUUGAUUAAUAUGAUAUCGUUCUUUCUCCUUGUAAAUAUAUUCUUUCUCGAUAUCAUAUUAAUCUUU
- Kd: 2.54 nM

B14: Id_iii_S2_P3E.6_K3.2_C3.3_H3.2_A3.1_F3.1_T3.2_[A10T] (ssRNA)
RNA: UUUGAUUAAUAUGAUAUCGUUCUUUCUUCUUAUAUAUAUUUUCUUUCUCGAUAUCAUAUUAAUCUUU
- Kd: 43.5 nM

B15: Id_iii_S2_P3E.5_K3.1_C3.3_[C-2T]_H3.1_A3.1_F3.1_T3.2 (ssRNA)
RNA: UUUGAUUAAUAUGAUAUCGUUCUUUCUUUUUGUAUAUAUAUUCUUUCUCGAUAUCAUAUUAAUCUUU
- Kd: 1.52 nM

B16: Id_iii_S2_P3E.5_K3.1_C3.3_H3.1_A3.1_F3.1_T3.2_[T9A] (ssRNA)
RNA: UUUGAUUAAUAUGAUAUCGUUCUUUCUUCUUGUAUAUAAAUUCUUUCUCGAUAUCAUAUUAAUCUUU
- Kd: 3.53 nM

B17: Id_iii_S2_P3E.7_K3.3_C3.3_H3.3_A3.1_F3.1_T3.2_[A10C] (ssRNA)
RNA: UUUGAUUAAUAUGAUAUCGUUCUUUCUUCUACACUAUAUCUUCUUUCUCGAUAUCAUAUUAAUCUUU
- Kd: 495 nM

B18: Id_iii_S2_P3E.6_K3.2_C3.3_[T-1C]_H3.2_A3.1_F3.1_T3.2 (ssRNA)
RNA: UUUGAUUAAUAUGAUAUCGUUCUUUCUUCCUAUAUAUAUAUUCUUUCUCGAUAUCAUAUUAAUCUUU
- Kd: 28.7 nM

B19: Id_iii_S2_P3E.5_K3.1_C3.3_[T-1A]_H3.1_A3.1_F3.1_T3.2 (ssRNA)
RNA: UUUGAUUAAUAUGAUAUCGUUCUUUCUUCAUGUAUAUAUAUUCUUUCUCGAUAUCAUAUUAAUCUUU
- Kd: 1.7 nM

B20: Id_iii_S2_P3E.7_K3.3_C3.3_[T-3G]_H3.3_A3.1_F3.1_T3.2 (ssRNA)
RNA: UUUGAUUAAUAUGAUAUCGUUCUUUCUGCUACACUAUAUAUUCUUUCUCGAUAUCAUAUUAAUCUUU
- Kd: 156 nM

B21: Id_iii_S2_P3E.8_K3.4_C3.3_[T-3A]_H3.1_A3.2_F3.1_T3.2 (ssRNA)
RNA: UUUGAUUAAUAUGAUAUCGUUCUUUCUACUUGUAAAUAUAUUCUUUCUCGAUAUCAUAUUAAUCUUU
- Kd: 3.74 nM

B22: Id_iii_S2_P3E.7_K3.3_C3.3_[C-2G]_H3.3_A3.1_F3.1_T3.2 (ssRNA)
RNA: UUUGAUUAAUAUGAUAUCGUUCUUUCUUGUACACUAUAUAUUCUUUCUCGAUAUCAUAUUAAUCUUU
- Kd: 0.454 nM

B23: Id_iii_S2_P3E.7_K3.3_C3.3_[T-1C]_H3.3_A3.1_F3.1_T3.2 (ssRNA)
RNA: UUUGAUUAAUAUGAUAUCGUUCUUUCUUCCACACUAUAUAUUCUUUCUCGAUAUCAUAUUAAUCUUU
- Kd: 321 nM

B24: Id_iii_S2_P3E.7_K3.3_C3.3_[T-1G]_H3.3_A3.1_F3.1_T3.2 (ssRNA)
RNA: UUUGAUUAAUAUGAUAUCGUUCUUUCUUCGACACUAUAUAUUCUUUCUCGAUAUCAUAUUAAUCUUU
- Kd: 430 nM

B25: Id_iii_S2_P3E.8_K3.4_C3.3_[C-2A]_H3.1_A3.2_F3.1_T3.2 (ssRNA)
RNA: UUUGAUUAAUAUGAUAUCGUUCUUUCUUAUUGUAAAUAUAUUCUUUCUCGAUAUCAUAUUAAUCUUU
- Kd: 26.3 nM

B26: Id_iii_S2_P3E.6_K3.2_C3.3_[C-2T]_H3.2_A3.1_F3.1_T3.2 (ssRNA)
RNA: UUUGAUUAAUAUGAUAUCGUUCUUUCUUUUUAUAUAUAUAUUCUUUCUCGAUAUCAUAUUAAUCUUU
- Kd: 111 nM

Binder: UCUCUUUGUCUUUUUAUCUCUU (ssRNA) [Ib_S1_P5E.1_K5.1_C5.1_H5.1_[A4C]_A5.1_[A7T]_F5.1_T5.1]
- Kd: 113 nM

Binder: UCUCUUUCUUGUAAUAUUAUGUCUCUU (ssRNA) [Id_iii_S1_P5E.8_K5.4_C5.3_H5.1_A5.2_F5.1_T5.2_[A12G]]
- Kd: 10 nM

B27: Id_iii_S2_P4E.5_K4.1_C4.3_[T-3C]_H4.1_A4.1_F4.1_T4.2 (ssRNA)
RNA: UUUGAUUAAUAUGAUAUCGUUCUUUCUCCUUGUAUAUUAGUUUCUUUCUCGAUAUCAUAUUAAUCUUU
- Kd: 0.191 nM

B28: Id_iii_S2_P4E.5_K4.1_C4.3_[T-1G]_H4.1_A4.1_F4.1_T4.2 (ssRNA)
RNA: UUUGAUUAAUAUGAUAUCGUUCUUUCUUCGUGUAUAUUAGUUUCUUUCUCGAUAUCAUAUUAAUCUUU
- Kd: 0.201 nM

B29: Id_iii_S2_P4E.5_K4.1_C4.3_[C-2T]_H4.1_A4.1_F4.1_T4.2 (ssRNA)
RNA: UUUGAUUAAUAUGAUAUCGUUCUUUCUUUUUGUAUAUUAGUUUCUUUCUCGAUAUCAUAUUAAUCUUU
- Kd: 1.08 nM

B30: Id_iii_S2_P4E.5_K4.1_C4.3_[C-2A]_H4.1_A4.1_F4.1_T4.2 (ssRNA)
RNA: UUUGAUUAAUAUGAUAUCGUUCUUUCUUAUUGUAUAUUAGUUUCUUUCUCGAUAUCAUAUUAAUCUUU
- Kd: 0.601 nM

B31: Id_iii_S2_P4E.5_K4.1_C4.3_[T-1C]_H4.1_A4.1_F4.1_T4.2 (ssRNA)
RNA: UUUGAUUAAUAUGAUAUCGUUCUUUCUUCCUGUAUAUUAGUUUCUUUCUCGAUAUCAUAUUAAUCUUU
- Kd: 0.205 nM

B32: Id_iii_S2_P4E.5_K4.1_C4.3_[C-2G]_H4.1_A4.1_F4.1_T4.2 (ssRNA)
RNA: UUUGAUUAAUAUGAUAUCGUUCUUUCUUGUUGUAUAUUAGUUUCUUUCUCGAUAUCAUAUUAAUCUUU
- Kd: 0.508 nM

Binder: UCUCUUCCUUGUAAUAUUAUAUCUCUU (ssRNA) [Id_iii_S1_P5E.8_K5.4_C5.3_[T-3C]_H5.1_A5.2_F5.1_T5.2]
- Kd: 8.43 nM

Binder: UCUCUUUCUACACUUAUUACAUCUCUU (ssRNA) [Id_iii_S1_P5E.7_K5.3_C5.3_H5.3_A5.1_F5.1_T5.2_[T11C]]
- Kd: > 2300 nM

Binder: UCUCUUUCUUGUAAUAUUAUCUCUCUU (ssRNA) [Id_iii_S1_P5E.8_K5.4_C5.3_H5.1_A5.2_F5.1_T5.2_[A12C]]
- Kd: 6.29 nM

Binder: UCUCUUUGUUUUGUUAUCUCUU (ssRNA) [Ib_S1_P5E.1_K5.1_C5.1_H5.1_[A4T]_A5.1_[A7G]_F5.1_T5.1]
- Kd: 426 nM

Binder: UCUCUUUGUCUUCUUAUCUCUU (ssRNA) [Ib_S1_P5E.1_K5.1_C5.1_H5.1_[A4C]_A5.1_[A7C]_F5.1_T5.1]
- Kd: 1090 nM

Binder: UCUCUUUCUACACUUAUUAUUUCUCUU (ssRNA) [Id_iii_S1_P5E.7_K5.3_C5.3_H5.3_A5.1_F5.1_T5.2_[A12T]]
- Kd: > 2300 nM

Binder: UCUCUUUCUUGUAAUAUUAAAUCUCUU (ssRNA) [Id_iii_S1_P5E.8_K5.4_C5.3_H5.1_A5.2_F5.1_T5.2_[T11A]]
- Kd: 11.3 nM

Binder: UCUCUUUCCUGUAAUAUUAUAUCUCUU (ssRNA) [Id_iii_S1_P5E.8_K5.4_C5.3_[T-1C]_H5.1_A5.2_F5.1_T5.2]
- Kd: 7.32 nM

Binder: UCUCUUUCUACACUUAUUAUGUCUCUU (ssRNA) [Id_iii_S1_P5E.7_K5.3_C5.3_H5.3_A5.1_F5.1_T5.2_[A12G]]
- Kd: > 2300 nM

Binder: UCUCUUACUUGUAAUAUUAUAUCUCUU (ssRNA) [Id_iii_S1_P5E.8_K5.4_C5.3_[T-3A]_H5.1_A5.2_F5.1_T5.2]
- Kd: 13.7 nM

Binder: UCUCUUUGUCUUGUUAUCUCUU (ssRNA) [Ib_S1_P5E.1_K5.1_C5.1_H5.1_[A4C]_A5.1_[A7G]_F5.1_T5.1]
- Kd: 475 nM
